Patent US6835824

Molecular target: nine-person peanut-specific IgE antibody pool (pooled serum of patients with AD and positive peanut challenge)
Test: IgE ELISA inhibition, crude peanut coated, pooled serum

B1: Ara h I, 63.5 kD peanut allergen, native, purified from Florunner peanut extract (protein, Arachis hypogaea, UniProt P43238 85-626, looked up)
chain: RSPPGERTRGRQPGDYDDDRRQPRREEGGRWGPAGPREREREEDWRQPREDWRRPSHQQPRKIRPEGREGEQEWGTPGSHVREETSRNNPFYFPSRRFSTRYGNQNGRIRVLQRFDQRSRQFQNLQNHRIVQIEAKPNTLVLPKHADADNILVIQQGQATVTVANGNNRKSFNLDEGHALRIPSGFISYILNRHDNQNLRVAKISMPVNTPGQFEDFFPASSRDQSSYLQGFSRNTLEAAFNAEFNEIRRVLLEENAGGEQEERGQRRWSTRSSENNEGVIVKVSKEHVEELTKHAKSVSKKGSEEEGDITNPINLREGEPDLSNNFGKLFEVKPDKKNPQLQDLDMMLTCVEIKEGALMLPHFNSKAMVIVVVNKGTGNLELVAVRKEQQQRGRREEEEDEDEEEEGSNREVRRYTARLKEGDVFIMPAAHPVAINASSELHLLGFGINAENNHRIFLAGDKDNVIDQIEKQAKDLAFPGSGEQVEKLIKNQKESHFVSARPQSQSQSPSSPEKESPEKEDQEEENQGGKGPLLSILKAFN
modifications: glycoprotein
- IC50: 5.5 ng/mL
